assay: soluble on expression in E. coli; label from the status in PepcDB or PDB records

| Sequence | soluble on expression in E. coli |
| --- | --- |
| SLKIKQIVKPGLAVLAAGVLSACATKSNVKADGTTDNPVFPKPYSVTLDNNRGTFPTYDELDLMRPGLTKDDIYKILGRPHYDEGMYGVREWDYLFHFHTPGVGIDPENTSGVEGITTCQYKIIFDKDKFARSFYWNPVFPKDAACPPPAPKAEPQVIIREIVPAKPKRIRQ | soluble |
| PTTRGYGETRGIVKENGLHTVCEEAGCPNIGECWDKKHATFMIMGDTCTRACAFCNVKTGMPGALDANEPAYVAEATRKLGLQHLVITSVDRDDLADGGAAHFAATIRAVREACPTTTIEILTPDFLRKDGALEVVVAAKPDVFNHNLETVPSRYLSVRPGARYFHSIRLLQRVKELDPSIFTKSGIMVGLGEERHEVLQVMDDLRSAEVDFLTIGQYLQPTRKHHAVMRYVTPDEFAGYQTTAYAKGFLMVSASPMTRSSHHAGDDFAKLKAA | not soluble |
| MPLPSFLEVYEGLISTSSISSTDARWDEGNEQVIAKLADWLSALGFSIQIEQVAPNKQNLIAKLGSGEGGLLLAGHSDTVPFDEGRWNYNPHALTQVNNRFYGLGTADMKGFFAFIYEAVKNVDWSKQTKPLYVLATCDEETTMLGARHFTENAPFKPDYCIIGEPTSLVPIRAHKGHVANAIRVTGKSGHSSNPALGVNAIEIMHEVLFALMQLRDRLIKEYHHPGFEIPTPTLNLGHIHGGDSPNRICGCCELHYDVRPLPGISLDGLDNLMHDALREVQQKWPGRIELVPLHDPIPGYECAHDHPFIHGISEICEQEAQTVNYCTEAPFLQQVCPTLVLGPGSIDQAHQPDEFLAFEFIDPTVRVLSRAMQKYCF | soluble |
| AHHHHHHGSVRVAIIGQGYVASIFAVGLERIKEGELGYYGIPLANELPIKVEDIKIVASYDVDKTKIGLPLSEIVQRYWKGNVPESLQEVFVRKGIHLGSLRNLPIEATGLEDEMTLKEAIERLVEEWKEKKVDVIINVPTTEAFTPFGKLEELEKAIKDNNKERLTATQAYAYAAAQYAKEVGGAAFVNAIPTLIANDPAFVELAKESNLVIFGDDGATGATPLTADILGHLAQRNRHVLDIVQFNIGGNTDFLALTDKERNKSKEYTKSSVVEDILGYDAPHFIKPTGYLEPLGDKKFIAMHIEYISFNGARDELIIAGRINDSPALAGLLVDLARLGKIAVDKKEFGTVYPVNAFYMKNPGPKEAKNIPRIIAYEKLRQWAGLPPRYL | soluble |
| EVVVVGYQEVRRRDLTGSVAKANMADVLTAPVASFDQALGGRIAGVNVTSGEGMPGGNMSIVIRGNNSLTQENSPLFVIDGFPIEDSSAASTLNPSDIESLDFLKDASATAIYGARGANGVVIITTKKGK | not soluble |
| MDSGVEASGYPPVGRAKILLERAVNPIPSPRRELEQYTTPADIAVRIAVDALLRGLLEGALAADLAAGTCRLGLALLLYGASRVAAVEADGRLAGLCLGAAEKLGLGGRIFFVASRVSRRRGPLAAGSVDLVATNPPFGVWRRGADWEVLEYALRLKPRAVYAIVKSGNMGFHAAKAAGLGYSTLLISREHFPIPASMPGHRSRVRRVSVDVVLFTRGG | soluble |
| MLHRIANGIIEEAAENGCTIIAFEELSGTRDRLPEASWGHKWAFERLYEYVKYKSELHGIDVAVVDPENTSRRCSHCGFTHPDNRDSEAFVCLKCGYENHADYNAAKNIGLRYLRRNQTGDGGGAPVGVRLNRGTLNANGEYETPAGDSGQSGSPRESPTLNEARSSDRAKLEHHHHHH | not soluble |
| MGSDKIHHHHHHMLRPESEAELAQIVAGLTAPVRIRGGGTRGVPGPKAELDISGLSGITLYEPGALTLVAKAGTPVAEIEAALAAEGQRLAFEPVDHRGLMGTGGTPTIGGVVAGNISGPRRIQAGAARDFLLGVRYVDGLGQVISNGGRVMKNVTGYDLVKLMAGSWGTLGVLSEVSLKVLPKAETQTTLAISVPDAASAVRALSAGLGSPYEVTGAAYDPALGQALVRIEGFEASVAYRAEALSRLFAPFGTVARLEDDPWPGIRDVAPFHGREGDVWRISVKPGDAPELAARCKAEALLFDWGGGLIWALMPEGADLRGRLGEFAGHATLIRGDRRQHAMFQPESAPLAALTRGLRQRFDPKGHFNPGLMG | not soluble |
| MRPDFGTDGRLPSALSMGTADVAFHLATGGNPVPLAFTFGFEGRAPTLDSVRARVAERVHHVPALRYRIARDRRKFRRVDRIAVDRHVHEAWLPEDTDGSATSRLMLSRPMSTDDRPPWDVWLVHGPAERHTLVYRTDHTFQDGMGAAYTARALLGDHPEGGPAPQRPARPTAHGLADALGEVVAAFRAPTPKPAFDGDFTGRVDVCHADTPLARLRAIARAHGGTVTDVYLAALSHAVRTWYLKDTGSAHPPLPVSIPMSVRAPGEEYAPGNRMVTARLLLPCDEESPQRALARVVAGTGRLRESRRRDAMRLLLSASPRALGATVGTRLVRGAFVAGPVSSVNFGTALVHQGVAARRSAVFAGVASGIRCVTTLTSQHDTACLTVVHDEALATADELPDLWLAALLELERPLEHHHHHH | not soluble |
| SFHYQALPMRVSFEVGAVTKIGEELDRLGLSRALVLCTPEQKHLADLVMDHLGDRGAGIFDQARMHVPVETADRARDRARKLGADSCVVIGGGSSIGLGKAIALEHGLPIIAIPTTYAGSEMTPIWGLTRDGRKQTGRDAKVLPQSVIYDPQLTAT | not soluble |
| MKAVTTSPSDPPDPFDPLDPVDPLASTKPEVDVVLPCLDEADALPWVLARIPPGWRALVVDNGSTDGSAEIARRLGATVVPETRRGFGAACHAGLTAATADIVCFCDCDGSLDPSLLVPFVREVRDGAADLVLGRRRPHGRGAWPAHARAGNLALARMLRRRTGLRLHDLGPLRAARREPLLALGLTDRRSGYPLQMVVRAADAGWRIAEHDVPYLPRTGVSKVTGTWRGTWQAVRDMSRVLAEPAQDGPPESGSLSSSQGGSSQLEHHHHHH | not soluble |
| MGKTYNVTRIIKLEVRDRIIPPTMKLPEGVVTSIGSNLTITCRVSLRLPTTDADVFWISNGMYYEEEDEDGDGRISVANKIYMTDKRRVITSWLNINPVKEEDATTFTCMAFTIPSISKTVTVSIT | not soluble |
| ARIGLYEKALPQNLTWAERLTWAKKLGFDFLEMSIDESDERLARLAWTPSQLQEFSQLMVKEDFFIHSLCLSGHRRFPLGSLNKETREKGRKILSQAIRLAHQLNIRVIQIAGYDVFYEEKTAETREFFLQGLKKGVEEAAQYGVILAVEIMDDPFMNSIQKFLEIKEQIPSPFLHVYPDLGNLSAWPENNPAVELEKGIAEIAAIHLKDTFAVTDTFEGKFREVTFGEGCVDFTGLLKTLKRLNYSGPFLIEMWNETDLNFQEKIQAAQQYLYPKLAEVGYY | not soluble |
| RDLLEQSLPDDIEEEIEKIICSESMVKGVRRIRTRNIGNYYAVEADILMDGGLSVALSHAATQRVEKLLRGRYGQPTHIVIHVEPFS | not soluble |
| MGSDKIHHHHHHMSETIQPGQTAVVLGAGGFLGSHVADALSNAGYKVRLFDRNPSPFRRSDQEMIIGDLMDISQVSNAVQGAAAVYNFAAIADIDEAHDNPLGTASINVLGNMHALEASRLAGVRRFIFASSVYVYSETGSFYRASKQAAERFTETYHERYGLEYTILRYGSLYGRRSDRRNGIYRMLHEAIQQRAITYRGSGESIREYIHVEDAARMSVQILAPEFANRHLILTGQEKLRIRDVMTMISEMLPWNVDLHYDQAKPGHHYQITPYAFQPRVGRKLVLNEHVDLGQGLLDCIQEIYQQISHGNEEGGTTPSSTDNQA | not soluble |
| MSLSPDSAHQQVSLRGGSGSEFMIVDITDGRLLGTIDSAKAMSQTHPGAVYLHQGESFVIDELDLEENLALARPELPDYTTYARSDTDIRITSAPLEDEVFDAGGGLWVANVEVQVTDRVTGYVTRLSDGTTLDATPLYLPPQILQTRAVAYTIDPLALEAMGIPAADIPGALHAAEHAAIGMLPLLATCDRWDIGGVSTALHADTGYPTVFVYDGMDGGAGFADTGFRRFAQWIEATFEVVRSCSCESGCPSCVQSPKCGNGNNPLDKAGAIKLLGAMVTLLGTSEGHHHHHH | not soluble |
| GMTSSFTDYCKFFNRILSEVQETQEQAIIKGAHLVSEAVMNGGRFYVFGSGHSHMIAEEIYNRAGGLALVTAILPPELMLHERPNKSTYLERIEGLSKSYLKLHQVTNKDVIMIISNSGRNTVPVEMAIESRNIGAKVIAMTSMKHSQKVTSRHKSGKKLYEYADVVLDNGAPVGDAGFQIANSEIYSGATSDSIGCFLAQALIVETLHLLVQQGFEPPVFKSSNVDGADLYNDKIFNEYVKW | soluble |
| DVKVQGCVEDADLLIVGFGGTYGHLYSAMEEMNHAGKKVALAHFVHLNPLPHNTAEVLKKYKKVVVAEQNLGQFAGYLRMKVDGFVPYQFNEVKGQPFVVSELVDAFTEILNK | not soluble |
| MKSQPYTASSVTSTSTTHHPWMPISLREPPSKFQKLSTSDAAPLHNVCSSLKMKSTKPSRKRPSPKESDLPPLPSISTLFDSGSSSHSSSSSSNSSYGSYCQFSPEGSYTMYHWPMNYIPYVSPDVTITATTSTSTNAMASPDPIMLSSPPKQPTIEHTPINQPLFIQTADYPYDYSAPDPTGGYPSSATINANQLLLRPVPNGHV | not soluble |
| MGSDKIHHHHHHMNTLEKRQHEILTNPLHFCKKSGDFAKHSMSIKLSKNELFDVDFVTGIYFVEKGIVMKGTQIDDYIGYDQLLKPGDVCNFSSFMSSDLKRNIGAQLLSPSSSVITAVDRDFFIFMVEKHVSVEEFMLYQAKKEIMILQRRCLLNTLKVKDRVKHLIAAIGYEYGISNGDNIQIPQELSTTFLSKFMGITREYLSLTLSELKKEDYLLNTKIPVVINVEKLFNEIPYESLIL | not soluble |
| MSLKKITMIQTQKKVGRFNIYINNKYAFPVSESILIKYRLHKGQELDENLIEEIKLADDISKGYNAALNYLSYQLRTRKEVEDKLRSLDIHEDYISEIINKLIDLDLINDKNYAESYVRTMMNTSDKGPKVIKLNLSKKGIDDNIAEDALILYTDKLQVEKGVTLAEKLANRYSHDSYRNKQNKIKQSLLTKGFSYDIIDTIIQELDLIFDDEGHHHHHH | soluble |
| MIYSRSKLPSEGEILIATVKQVFDYGSYVSLDEYGGLQAFLPWSEVSSKWVKNIRDVLKENRKVIVKVIRVDRRKGTVDVSLKKVTDDERRKKNLQWKKIQRLDKILELVSQKLKLSEKDAWEQVAWKLEAKYGDPITAIEKAVKEGEKILIDAGVPEIWVKPLLEEASKHAEERKVKMSGLITVRTNEPLGVEKIKEVISKALENIEQDYESLLNIKIYTIGAPRYRVDVVGTNPKEASEALNQIISNLIKIGKEENVDISVVKK | soluble |
| MRQIETQQLEAETSFTERIAEDRVKCAAQRESLERQLQDLTATDNKLSEQKRDWEERQEKAYDELMSYLENEDVDSAGTQFGDHFNSLIKSMNNLSHDSMNGQFNSLKNNLDELNIEKKQLEVAIADQSSTISEMIPSLRPTCGATYKERNTLRIIFHYQVAKLRSEYQKCRLQEEALKARLST | not soluble |
| GKVLDAIIQEKKSGRIPGIYGRLGDLGAIDEKYDIAISSCCHALDYIVVDSIDTAQECVNFLKKHNIGIATFIGLDKMTVWAKKMSKIQTPENTPRLFDLVKVKNEEIRQAFYFALRDTLVANNLDQATRVAYQRDRRWRVVTLQGQIIEQSGTMSGGLEHHHHHH | soluble |
